For this assay, the target named is Smac/DIABLO, endogenous (human (endogenous in HEK293F and HEK293T)). The assay is described as follows: cryo-EM structure; FLAG-BIRC6 purified from HEK293F, cross-linked with 0.01% glutaraldehyde; global map 3.6 Å; a class with endogenous co-purified Smac in the central cavity at 4.7 Å.

What is called stoichiometry N is the number of molecules, sites or subunits per partner or assembly. In turn, “Smac/DIABLO, endogenous (natural protein)” showed a stoichiometry N of 2.

Source of the values: article PMC10827748.
